Data: patent US20230357343A1 (ASHER BIOTHERAPEUTICS, published 2023)

B1: xhCD8.1-hIL21 v2.33 (other)
chain: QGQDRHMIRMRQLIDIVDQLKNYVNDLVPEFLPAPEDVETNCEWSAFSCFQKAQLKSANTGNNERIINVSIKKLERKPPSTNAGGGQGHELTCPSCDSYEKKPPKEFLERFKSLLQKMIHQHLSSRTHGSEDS
VH: QVQLVQSGAEVKKPGSSVKVSCKASGGTFSSYAISWVRQAPGQGLEWMGGIIPGYATANYAQKFQGRVTITADESTSTAYMELSSLRSEDTAVYYCARDAAGIRLFADWGQGTLVTVSS
VL: DIQMTQSPSSLSASVGDRVTITCRASQSIYGALNWYQQKPGKAPKLLIYGASNLQSGVPSRFSGSGSGTDFTLTISSLQPEDFATYYCQSTYTAPWTFGGGTKVEIK
notes: hIgG1/kappa; IL-21 part on one heavy-chain C-terminus via (G4S)3 linker
B2: xhCD8.1-hIL21 v2.34 (other)
chain: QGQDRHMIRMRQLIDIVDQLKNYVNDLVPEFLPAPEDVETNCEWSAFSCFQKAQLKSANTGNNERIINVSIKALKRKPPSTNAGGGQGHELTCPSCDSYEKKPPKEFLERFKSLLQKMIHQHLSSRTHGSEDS
VH: QVQLVQSGAEVKKPGSSVKVSCKASGGTFSSYAISWVRQAPGQGLEWMGGIIPGYATANYAQKFQGRVTITADESTSTAYMELSSLRSEDTAVYYCARDAAGIRLFADWGQGTLVTVSS
VL: DIQMTQSPSSLSASVGDRVTITCRASQSIYGALNWYQQKPGKAPKLLIYGASNLQSGVPSRFSGSGSGTDFTLTISSLQPEDFATYYCQSTYTAPWTFGGGTKVEIK
notes: as for B1
B3: xhCD8.1-hIL21 v2.36 (other)
chain: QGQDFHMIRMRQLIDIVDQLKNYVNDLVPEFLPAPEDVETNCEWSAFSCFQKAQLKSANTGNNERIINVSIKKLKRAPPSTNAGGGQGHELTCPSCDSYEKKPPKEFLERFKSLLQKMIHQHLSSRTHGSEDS
VH: QVQLVQSGAEVKKPGSSVKVSCKASGGTFSSYAISWVRQAPGQGLEWMGGIIPGYATANYAQKFQGRVTITADESTSTAYMELSSLRSEDTAVYYCARDAAGIRLFADWGQGTLVTVSS
VL: DIQMTQSPSSLSASVGDRVTITCRASQSIYGALNWYQQKPGKAPKLLIYGASNLQSGVPSRFSGSGSGTDFTLTISSLQPEDFATYYCQSTYTAPWTFGGGTKVEIK
notes: as for B1
B4: xhCD8.1-hIL21 v2.37 (other)
chain: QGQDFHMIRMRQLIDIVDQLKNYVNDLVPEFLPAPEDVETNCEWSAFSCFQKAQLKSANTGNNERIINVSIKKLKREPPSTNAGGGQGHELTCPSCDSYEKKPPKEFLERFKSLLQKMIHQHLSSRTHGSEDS
VH: QVQLVQSGAEVKKPGSSVKVSCKASGGTFSSYAISWVRQAPGQGLEWMGGIIPGYATANYAQKFQGRVTITADESTSTAYMELSSLRSEDTAVYYCARDAAGIRLFADWGQGTLVTVSS
VL: DIQMTQSPSSLSASVGDRVTITCRASQSIYGALNWYQQKPGKAPKLLIYGASNLQSGVPSRFSGSGSGTDFTLTISSLQPEDFATYYCQSTYTAPWTFGGGTKVEIK
notes: as for B1
B5: xhCD8.1-hIL21 v2.38 (other)
chain: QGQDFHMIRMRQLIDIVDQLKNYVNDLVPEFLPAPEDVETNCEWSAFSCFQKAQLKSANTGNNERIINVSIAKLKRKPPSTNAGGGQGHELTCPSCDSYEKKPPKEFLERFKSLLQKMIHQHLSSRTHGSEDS
VH: QVQLVQSGAEVKKPGSSVKVSCKASGGTFSSYAISWVRQAPGQGLEWMGGIIPGYATANYAQKFQGRVTITADESTSTAYMELSSLRSEDTAVYYCARDAAGIRLFADWGQGTLVTVSS
VL: DIQMTQSPSSLSASVGDRVTITCRASQSIYGALNWYQQKPGKAPKLLIYGASNLQSGVPSRFSGSGSGTDFTLTISSLQPEDFATYYCQSTYTAPWTFGGGTKVEIK
notes: as for B1
B6: xhCD8.1-hIL21 v2.39 (other)
chain: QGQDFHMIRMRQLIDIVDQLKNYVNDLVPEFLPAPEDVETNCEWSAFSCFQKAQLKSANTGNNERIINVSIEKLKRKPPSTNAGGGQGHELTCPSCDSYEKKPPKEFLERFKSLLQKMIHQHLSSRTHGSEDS
VH: QVQLVQSGAEVKKPGSSVKVSCKASGGTFSSYAISWVRQAPGQGLEWMGGIIPGYATANYAQKFQGRVTITADESTSTAYMELSSLRSEDTAVYYCARDAAGIRLFADWGQGTLVTVSS
VL: DIQMTQSPSSLSASVGDRVTITCRASQSIYGALNWYQQKPGKAPKLLIYGASNLQSGVPSRFSGSGSGTDFTLTISSLQPEDFATYYCQSTYTAPWTFGGGTKVEIK
notes: as for B1
B7: xhCD8.1-hIL21 v2.40 (other)
chain: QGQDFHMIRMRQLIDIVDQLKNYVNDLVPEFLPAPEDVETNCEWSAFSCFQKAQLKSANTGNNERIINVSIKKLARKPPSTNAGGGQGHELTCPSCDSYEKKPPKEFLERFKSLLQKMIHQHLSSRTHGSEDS
VH: QVQLVQSGAEVKKPGSSVKVSCKASGGTFSSYAISWVRQAPGQGLEWMGGIIPGYATANYAQKFQGRVTITADESTSTAYMELSSLRSEDTAVYYCARDAAGIRLFADWGQGTLVTVSS
VL: DIQMTQSPSSLSASVGDRVTITCRASQSIYGALNWYQQKPGKAPKLLIYGASNLQSGVPSRFSGSGSGTDFTLTISSLQPEDFATYYCQSTYTAPWTFGGGTKVEIK
notes: as for B1
B8: xhCD8.1-hIL21 v2.41 (other)
chain: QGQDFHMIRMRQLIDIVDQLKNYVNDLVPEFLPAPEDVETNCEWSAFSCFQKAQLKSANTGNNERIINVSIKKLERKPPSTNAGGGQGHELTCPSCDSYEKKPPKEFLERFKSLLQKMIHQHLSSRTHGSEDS
VH: QVQLVQSGAEVKKPGSSVKVSCKASGGTFSSYAISWVRQAPGQGLEWMGGIIPGYATANYAQKFQGRVTITADESTSTAYMELSSLRSEDTAVYYCARDAAGIRLFADWGQGTLVTVSS
VL: DIQMTQSPSSLSASVGDRVTITCRASQSIYGALNWYQQKPGKAPKLLIYGASNLQSGVPSRFSGSGSGTDFTLTISSLQPEDFATYYCQSTYTAPWTFGGGTKVEIK
notes: as for B1
B9: xhCD8.1-hIL21 v2.56 (other)
chain: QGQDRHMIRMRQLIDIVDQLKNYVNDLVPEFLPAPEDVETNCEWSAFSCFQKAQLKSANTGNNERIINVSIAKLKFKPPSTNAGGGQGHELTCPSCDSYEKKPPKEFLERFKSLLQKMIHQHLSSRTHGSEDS
VH: QVQLVQSGAEVKKPGSSVKVSCKASGGTFSSYAISWVRQAPGQGLEWMGGIIPGYATANYAQKFQGRVTITADESTSTAYMELSSLRSEDTAVYYCARDAAGIRLFADWGQGTLVTVSS
VL: DIQMTQSPSSLSASVGDRVTITCRASQSIYGALNWYQQKPGKAPKLLIYGASNLQSGVPSRFSGSGSGTDFTLTISSLQPEDFATYYCQSTYTAPWTFGGGTKVEIK
notes: as for B1
B10: xhCD8.1-hIL21 v2.58 (other)
chain: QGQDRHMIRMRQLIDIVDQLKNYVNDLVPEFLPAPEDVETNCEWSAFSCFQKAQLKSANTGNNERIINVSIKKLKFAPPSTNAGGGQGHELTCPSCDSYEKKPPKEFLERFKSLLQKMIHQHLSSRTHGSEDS
VH: QVQLVQSGAEVKKPGSSVKVSCKASGGTFSSYAISWVRQAPGQGLEWMGGIIPGYATANYAQKFQGRVTITADESTSTAYMELSSLRSEDTAVYYCARDAAGIRLFADWGQGTLVTVSS
VL: DIQMTQSPSSLSASVGDRVTITCRASQSIYGALNWYQQKPGKAPKLLIYGASNLQSGVPSRFSGSGSGTDFTLTISSLQPEDFATYYCQSTYTAPWTFGGGTKVEIK
notes: as for B1

Biological target: recombinant human IL-21R, extracellular domain fused to 8xHistidine tag (generated in house) (human, UniProt Q9HBE5 20-232)
Assay: SPR 37 C, Fc-captured fusion
Procedure: Protein was not captured on flow cell 1 to serve as a reference surface. A serial dilution was generated for human IL-21R, in HBS-P+ buffer supplemented with 1 g/L BSA, starting at nominal concentrations between 20-5 μM, followed by six to seven 5-fold serial dilutions, and flowed over the surface-captured fusion protein for 2 minutes at 30 μL/min. Buffer was also flowed over the surface to serve as a blank subtraction. Dissociation was monitored for 5-10 minutes, and the anti-hIgG-Fc surface was regenerated with three 30 to 60-seconds injections of 75 mM phosphoric acid before recapturing fusion protein in each subsequent binding cycle. Binding data were double-referenced and analyzed by Biacore® Evaluation Software version 3.2 using steady-state affinity for very weak interactions, or when possible, a 1:1 Langmuir with mass transport model to determine kinetic rate constants (kₐ, kd) and KD.

Chain of recombinant human IL-21R, extracellular domain fused to 8xHistidine tag (generated in house) (Q9HBE5 other isoform, or with tags, fused parts or gaps limits assumed): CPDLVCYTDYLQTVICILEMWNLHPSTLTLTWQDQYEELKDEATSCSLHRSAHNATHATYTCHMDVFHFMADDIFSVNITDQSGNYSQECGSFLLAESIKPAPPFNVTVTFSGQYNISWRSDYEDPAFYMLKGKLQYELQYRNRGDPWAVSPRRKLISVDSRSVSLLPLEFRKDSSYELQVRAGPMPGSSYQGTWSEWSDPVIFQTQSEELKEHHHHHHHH

Binder	Kd [nM]
B1	1.3
B2	2
B3	125
B4	601
B5	66.9
B6	614
B7	54.7
B8	104
B9	156
B10	420
